Experiment [1] deals with T1, human IGF-1 (human, UniProt P05019 49-118). In words: cell-based or functional assay.
The target of experiment [2] is T2, human IGF-2 (human, UniProt P01344 25-91). In words: cell-based or functional assay.
Experiment [3] concerns the target T2, human IGF-2. In words: cell-based or functional assay. The source holds these as a separate data set.
The target in experiment [4] is T1, human IGF-1. The experiment in a line: cell-based or functional assay. This is another data set of the same source.
Experiment [5] deals with T2, human IGF-2. The experiment in a line: cell-based or functional assay. This is another data set of the same source.
The target in experiment [6] is T1, human IGF-1. In words: electrochemiluminescence-based equilibrium titration (BioVeris).
The target of experiment [7] is T3, rat IGF-2 (rat, UniProt P01346 25-91).
T3 construct: Bought recombinant protein
The experiment in a line: SPR (Biacore 3000), antibody captured by anti-human Fc, IGF antigen flowed, 25 C.
Procedure: (§1) The sensor chip is coated with approximately 1000 RU of the reference antibody in flow cell 1 and approximately 1000 RU of a rabbit-anti-human Fc-gamma-specific antibody in flow cell 2 using the coupling reagents from an amine coupling kit. A target of 1000 RU is set in the surface preparation wizard of the Biacore 3000 software at a flow rate of 5 μl/min Running buffer used is HBS-EP. […] Blank runs using running buffer only are run in-between. A blank run curve is subtracted from each binding curve before affinity analysis. Data evaluation is performed using the BIAevaluation software (version 4.1, Biacore, Freiburg, Germany). The dissociation and association phases of the kinetics are fitted separately. For the separate fit of the kdiss values a time-frame of the initial 200-300 seconds in the dissociation phase is used (range of steady decrease of signal). For the separate fit of the kₐₛₛ values, initial time frames of approx 100 seconds are used (range of steady increase of signal) and for calculation the individual kdiss values are used with the 1:1 Langmuir association model. The average values with the standard deviations of the kinetic data together with the corresponding dissociation (KD) and association (KA) constants are calculated.

Experiment [8] addresses T1, human IGF-1. Described as above.
Procedure: as §1
Experiment [9] has as its target T4, mouse IGF-1 (mouse, UniProt P05017 49-118).
T4 construct: Bought recombinant protein; also called murine IGF-1
The experiment is described as above.
Procedure: as §1

For experiment [10], the target named is T5, rat IGF-1 (rat, UniProt P08025 49-118).
T5 construct: Bought recombinant protein
The experiment is described as above.
Procedure: as §1

For experiment [11], the target named is T2, human IGF-2. The description is as above.
Procedure: as §1
The target in experiment [12] is T6, mouse IGF-2 (mouse, UniProt P09535 25-91).
T6 construct: Bought recombinant protein; also called murine IGF-2
Described as above.
Procedure: as §1

A further experiment deals with T7, human insulin (human, UniProt P01308 25-54; P01308 90-110).
T7 construct: Bought (Roche); coated at 3 ug/ml in the ELISA
In words: direct ELISA, human insulin coated at 3 ug/ml, anti-human IgG-HRPO, OD 450 nm. On the technique in general: ELISA stands for enzyme-linked immunosorbent assay.

Experiment [13] has as its target T5, rat IGF-1. The experiment in a line: direct ELISA, rat IGF-1 coated on the plate, anti-human IgG-HRPO, OD 450 nm.
Procedure: (§2) Fully human IgG1 antibodies that bound with high affinity to IGF-1 are also tested for binding to human IGF-1 in direct immunosorbent assays (ELISA). Assays are performed by coating human IGF-1 (R&D Systems, No. 291-G1) to 96-well Maxisorb plates at a concentration of 0.5 μg/ml overnight at 4° C. (100 μl/well). Coating buffer alone is used as a control for unspecific binding. Wells are then washed once with washing buffer (1×TBS-T) and residual binding sites are blocked with 200 μl blocking buffer for 1 hour at room temperature on an orbital shaker followed by a further wash cycle. Serial three-fold dilutions of each test antibody in blocking buffer are prepared directly on the coated plates. […] Blocking buffer alone is used as a positive control. The plates are then incubated for 2 hours at room temperature with agitation. After three wash cycles 100 μl/well of HRPO-conjugated anti-human IgG secondary reagent (Jackson ImmunoResearch Inc.) diluted in blocking buffer is added to all wells. After 2 hours incubation at room temperature with agitation the plates are washed three-times and 100 μl/well of TMB substrate solution (equal amounts of solution A and B) are pipetted into all wells. […] The absorbance is measured at a wavelength of 450 nm (reference 650 nm).
The target of experiment [14] is T3, rat IGF-2. In words: direct ELISA, rat IGF-2 coated on the plate, anti-human IgG-HRPO, OD 450 nm.
Procedure: as §2
Experiment [15] has as its target T4, mouse IGF-1. The experiment in a line: direct ELISA, mouse IGF-1 coated on the plate, anti-human IgG-HRPO, OD 450 nm.
Procedure: as §2
Experiment [16] deals with T6, mouse IGF-2. The experiment in a line: direct ELISA, mouse IGF-2 coated on the plate, anti-human IgG-HRPO, OD 450 nm.
Procedure: as §2

T4 sequence (P05017 49-118 limits assumed): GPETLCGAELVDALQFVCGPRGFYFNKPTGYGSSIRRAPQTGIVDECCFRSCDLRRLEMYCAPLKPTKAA
T7 sequence (P01308 25-54 limits assumed, chain 1 of 2): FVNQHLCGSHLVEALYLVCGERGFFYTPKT
T7 sequence (P01308 90-110 limits assumed, chain 2 of 2): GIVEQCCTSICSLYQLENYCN
T6 sequence (P09535 25-91 limits assumed): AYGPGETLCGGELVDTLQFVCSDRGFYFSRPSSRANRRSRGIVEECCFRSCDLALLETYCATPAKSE
T2 sequence (P01344 25-91 limits assumed): as the sequence (P09535 25-91 limits assumed) above, with G3R, G5S, S22G, S32A, A35V, N36S counted along it
T3 sequence (P01346 25-91 limits assumed): as the sequence (P09535 25-91 limits assumed) above, with G3R, G5S counted along it
T5 sequence (P08025 49-118 limits assumed): as the sequence (P05017 49-118 limits assumed) above, with A69S counted along it
T1 sequence (P05019 49-118): as the sequence (P05017 49-118 limits assumed) above, with P20D, I35S, T67A, A69S counted along it
Procedure for human insulin: Fully human IgG1 antibodies that bound with high affinity to IGF-1 are also tested for binding to human IGF-1 in direct immunosorbent assays (ELISA). Assays are performed by coating human IGF-1 (R&D Systems, No. 291-G1) to 96-well Maxisorb plates at a concentration of 0.5 μg/ml overnight at 4° C. (100 μl/well). Coating buffer alone is used as a control for unspecific binding. Wells are then washed once with washing buffer (1×TBS-T) and residual binding sites are blocked with 200 μl blocking buffer for 1 hour at room temperature on an orbital shaker followed by a further wash cycle. Serial three-fold dilutions of each test antibody in blocking buffer are prepared directly on the coated plates. […] Blocking buffer alone is used as a positive control. The plates are then incubated for 2 hours at room temperature with agitation. After three wash cycles 100 μl/well of HRPO-conjugated anti-human IgG secondary reagent (Jackson ImmunoResearch Inc.) diluted in blocking buffer is added to all wells. After 2 hours incubation at room temperature with agitation the plates are washed three-times and 100 μl/well of TMB substrate solution (equal amounts of solution A and B) are pipetted into all wells. The plates are incubated for 10-20 min at RT with agitation and then the reaction is stopped by addition of 100 μl/well 1 M phosphoric acid. The absorbance is measured at a wavelength of 450 nm (reference 650 nm).

B1: antibody 60833 (antibody, human IgG1, lambda, V domains shown)
VH: QVELVESGGGLVQPGGSLRLSCAASGFTFTSYWMSWVRQAPGKGLELVSSITSYGSFTYYADSVKGRFTISRDNSKNTLYLQMNSLRAEDTAVYYCARNMYTHFDSWGQGTLVTVSS
VL: DIVLTQPPSVSGAPGQRVTISCSGSSSNIGSNSVSWYQQLPGTAPKLLIYDNSKRPSGVPDRFSGSKSGTSASLAITGLQSEDEADYYCQSRDTYGYYWVFGGGTKLTVLG
notes: Fully human IgG1 with Ig lambda light chain
By Kd is commonly meant the constant that tells how readily two partners part at equilibrium. Read a high Kd as lower affinity. By koff is commonly meant a measure of how fast the partners let go of each other. A word on the kon: it is a measure of how fast the partners come together. Low readings indicate slower complex formation, high ones faster complex formation. B1: in the experiment with human IGF-1 [1], the “IC50 of IGF-1 (20 ng/mL) induced IGF-1R phosphorylation, cell based ELISA” value is 0.09 µg/mL. Also, in the experiment with human IGF-2 [2], the “IC50 of IGF-2 (100 ng/mL) induced IGF-1R phosphorylation, cell based ELISA” value came out at 1.12 µg/mL. In addition, in the experiment with human IGF-2 [3], the “IC50 of IGF-2 (100 ng/mL) induced IR-A phosphorylation, cell based ELISA” value amounted to 0.82 µg/mL. Further, in the experiment with human IGF-1 [4], the “IC50 of IGF-1 induced COLO-205 cell proliferation” value was 0.165 µg/mL. In addition, the “IC50 of IGF-1 induced MCF7 cell proliferation” value with human IGF-1 [4] was found to be 0.0386 µg/mL. The “IC50 of IGF-2 induced COLO 205 cell proliferation” value with human IGF-2 [5] turned out to be 0.632 µg/mL. For the same molecule, in the experiment with human IGF-2 [5], the “IC50 of IGF-2 induced MCF7 cell proliferation” value turned out to be 0.0812 µg/mL. The dissociation constant Kd amounted to 0.13 nM with human IGF-1 [6]; 2.41 nM with rat IGF-2 [7]; 0.07 nM with human IGF-1 [8]; 0.33 nM in the experiment with mouse IGF-1 [9]; 0.07 nM with rat IGF-1 [10]; 0.913 nM in the experiment with human IGF-2 [11]. The molecule also came in with a Kd with mouse IGF-2 [12] of 13.4 nM. The koff is 0.00613 s⁻¹ with rat IGF-2 [7]; 0.000301 s⁻¹ with human IGF-1 [8]; 0.000323 s⁻¹ with mouse IGF-1 [9]; 0.000253 s⁻¹ with rat IGF-1 [10]; 0.00353 s⁻¹ in the experiment with human IGF-2 [11]; 0.011 s⁻¹ in the experiment with mouse IGF-2 [12]. Further, the association rate constant (kon) turned out to be 2.56e+06 M⁻¹ s⁻¹ in the experiment with rat IGF-2 [7]; 4.74e+06 M⁻¹ s⁻¹ with human IGF-1 [8]; 1e+06 M⁻¹ s⁻¹ with mouse IGF-1 [9]; 3.81e+06 M⁻¹ s⁻¹ with rat IGF-1 [10]; 3.97e+06 M⁻¹ s⁻¹ with human IGF-2 [11]; 868000 M⁻¹ s⁻¹ with mouse IGF-2 [12]. The binding result with human insulin is “no binding (tested: 50 ng/mL)”.

B2: antibody 60814 (antibody, human IgG1, lambda, V domains shown)
VH: QVELVESGGGLVQPGGSLRLSCAASGFTFSNYWMHWVRQAPGKGLEWVSGISGWSSWTYYADSVKGRFTISRDNSKNTLYLQMNSLRAEDTAVYYCARFGIDAYTKVYFDYWGQGTLVTVSS
VL: DIELTQPPSVSVAPGQTARISCSGDNIPLKYVSWYQQKPGQAPVLVIHDDNKRPSGIPERFSGSNSGNTATLTISGTQAEDEADYYCSSWDTLDIFNVFGGGTKLTVLG
notes: as for B1
In the case of B2, the “IC50 of IGF-1 induced COLO-205 cell proliferation” value in the experiment with human IGF-1 [4] worked out at 0.135 µg/mL. The “IC50 of IGF-1 induced MCF7 cell proliferation” value with human IGF-1 [4] amounted to 0.0241 µg/mL. In the experiment with human IGF-2 [5], the “IC50 of IGF-2 induced COLO 205 cell proliferation” value is 0.576 µg/mL. In the experiment with human IGF-2 [5], the “IC50 of IGF-2 induced MCF7 cell proliferation” value worked out at 0.0782 µg/mL. For the same molecule, the dissociation constant (Kd) in the experiment with human IGF-1 [6] worked out at 0.18 nM. Besides, the binding result with rat IGF-1 [13] was “binds”; with rat IGF-2 [14] it was “binds”; with mouse IGF-1 [15], “binds”; with mouse IGF-2 [16], “binds”; with human insulin, “no binding (tested: 50 ng/mL)”.

B3: antibody 60819 (antibody, human IgG1, lambda, V domains shown)
VH: QVELVESGGGLVQPGGSLRLSCAASGFTFSNYWMHWVRQAPGKGLEWVSGISGWSSWTYYADSVKGRFTISRDNSKNTLYLQMNSLRAEDTAVYYCARFGIDAYTKVYFDYWGQGTLVTVSS
VL: DIELTQPPSVSVAPGQTARISCSGDNIPLKYVSWYQQKPGQAPVLVIHDDNKRPSGIPERFSGSNSGNTATLTISGTQAEDEADYYCQSYDYFPKFVVFGGGTKLTVLG
notes: as for B1
For B3, the “IC50 of IGF-1 induced COLO-205 cell proliferation” value in the experiment with human IGF-1 [4] came out at 0.217 µg/mL. The “IC50 of IGF-1 induced MCF7 cell proliferation” value with human IGF-1 [4] was determined as 0.054 µg/mL. Moreover, the “IC50 of IGF-2 induced COLO 205 cell proliferation” value with human IGF-2 [5] stood at 0.101 µg/mL. For the same molecule, the “IC50 of IGF-2 induced MCF7 cell proliferation” value in the experiment with human IGF-2 [5] came out at 0.0408 µg/mL. This molecule displayed a Kd in the experiment with human IGF-1 [6] of 0.19 nM. The binding result is recorded as “binds” with rat IGF-1 [13]; “binds” with rat IGF-2 [14]; “binds” with mouse IGF-1 [15]; “binds” in the experiment with mouse IGF-2 [16]; “no binding (tested: 50 ng/mL)” in the experiment with human insulin.

Values taken from US20150010574A1 (Boehringer Ingelheim, published 2015).
